The results in this text go back to paper PMC9052802.

By stoichiometry N is commonly meant the number of molecules, sites or subunits per partner or assembly.

The target in the test is RopC-U (thiazoline-containing product of the reaction of RopC with MicD-F) (UniProt P03051). The test is described as follows: SEC.

The substance “RopC-U (thiazoline-containing product of the reaction of RopC with MicD-F) (from UniProt P03051 1-63) (natural protein)” registered a stoichiometry N of 2.
